# Like-named read-outs stand apart in the source and are kept apart here.
# T1: SsoPCNA1:MsePCNA2 complex (Sulfolobus solfataricus | …, UniProt P57766 1-249; A4YHP5 1-244)
# T1 construct: SsoPCNA1, PCNA subunit 1 of Sulfolobus solfataricus; as m4; MsePCNA2 (Msed_1792), PCNA homologue of Metallosphaera sedula; as m2; Formed on the SPR chip: MsePCNA2 immobilised on CM5, then 1 μM SsoPCNA1 applied; also called immobilised MsePCNA2 that tethered SsoPCNA1
# T1 sequence (looked up) 1: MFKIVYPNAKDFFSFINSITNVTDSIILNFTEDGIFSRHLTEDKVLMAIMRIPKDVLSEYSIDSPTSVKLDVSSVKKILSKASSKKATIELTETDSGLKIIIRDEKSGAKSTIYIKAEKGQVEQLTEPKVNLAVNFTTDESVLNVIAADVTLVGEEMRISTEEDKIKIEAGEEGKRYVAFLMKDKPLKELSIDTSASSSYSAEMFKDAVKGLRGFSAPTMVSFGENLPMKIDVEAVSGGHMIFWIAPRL
# T1 sequence (looked up) 2: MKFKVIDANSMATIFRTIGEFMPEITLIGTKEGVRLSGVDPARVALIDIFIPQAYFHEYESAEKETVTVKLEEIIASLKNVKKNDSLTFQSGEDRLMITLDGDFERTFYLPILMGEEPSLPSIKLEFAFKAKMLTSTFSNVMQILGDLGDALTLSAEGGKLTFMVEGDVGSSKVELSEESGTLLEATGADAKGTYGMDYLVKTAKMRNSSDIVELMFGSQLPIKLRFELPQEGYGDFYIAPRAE
# T2: MsePCNA1:MsePCNA2 heterodimer (Metallosphaera sedula, UniProt A4YCS6 1-247; A4YHP5 1-244)
# T2 construct: MsePCNA1 (Msed_0051), PCNA homologue of Metallosphaera sedula; as m1; MsePCNA2 (Msed_1792), PCNA homologue of Metallosphaera sedula; as m2; In SPR formed on the chip: MsePCNA2 immobilised on CM5, then 1 μM MsePCNA1 applied; In the pull-down and SEC formed in the mixture; Tag removal is said for the pull-down only; also called immobilised MsePCNA2 with MsePCNA1; MsePCNA1 and MsePCNA2 together; …
# T2 sequence (looked up) 1: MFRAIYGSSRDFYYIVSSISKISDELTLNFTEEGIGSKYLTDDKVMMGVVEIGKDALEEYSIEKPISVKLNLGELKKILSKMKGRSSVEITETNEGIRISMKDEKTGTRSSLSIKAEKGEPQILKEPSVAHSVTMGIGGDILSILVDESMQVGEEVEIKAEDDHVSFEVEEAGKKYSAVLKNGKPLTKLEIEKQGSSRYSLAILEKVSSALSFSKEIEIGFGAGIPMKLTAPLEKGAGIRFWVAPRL
# T2 sequence (looked up) 2: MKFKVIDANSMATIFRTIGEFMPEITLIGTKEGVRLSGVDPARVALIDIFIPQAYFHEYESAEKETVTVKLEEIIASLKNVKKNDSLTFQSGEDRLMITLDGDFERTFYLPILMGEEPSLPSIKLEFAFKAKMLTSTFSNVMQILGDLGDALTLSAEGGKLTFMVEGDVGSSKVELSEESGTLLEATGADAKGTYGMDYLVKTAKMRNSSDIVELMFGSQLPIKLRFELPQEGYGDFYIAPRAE
# T3: MsePCNA1 (Metallosphaera sedula, UniProt A4YCS6 1-247)
# T3 construct: MsePCNA1 (Msed_0051), PCNA homologue of Metallosphaera sedula; 'His6-tag-removed' is said for the pull-down only; also called Msed_0051; M. sedula PCNA homologue 1
# T3 sequence (looked up): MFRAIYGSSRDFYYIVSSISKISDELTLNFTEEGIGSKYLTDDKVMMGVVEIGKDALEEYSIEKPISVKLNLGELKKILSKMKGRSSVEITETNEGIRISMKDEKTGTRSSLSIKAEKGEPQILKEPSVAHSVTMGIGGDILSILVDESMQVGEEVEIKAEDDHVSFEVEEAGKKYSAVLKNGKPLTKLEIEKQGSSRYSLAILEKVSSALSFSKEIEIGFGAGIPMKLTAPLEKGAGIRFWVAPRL
# T4: SsoPCNA1 (Sulfolobus solfataricus, UniProt P57766 1-249)
# T4 construct: SsoPCNA1, PCNA subunit 1 of Sulfolobus solfataricus; also called S. solfataricus PCNA1
# T4 sequence (looked up): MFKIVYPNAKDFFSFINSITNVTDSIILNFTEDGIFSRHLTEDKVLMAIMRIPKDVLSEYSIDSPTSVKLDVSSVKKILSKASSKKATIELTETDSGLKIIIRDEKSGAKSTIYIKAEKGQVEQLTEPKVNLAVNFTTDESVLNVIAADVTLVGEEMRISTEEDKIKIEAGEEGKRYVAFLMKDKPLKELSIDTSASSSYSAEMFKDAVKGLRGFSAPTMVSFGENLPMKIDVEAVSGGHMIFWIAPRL
# T5: SsoPCNA2 (Sulfolobus solfataricus)
# T5 chain: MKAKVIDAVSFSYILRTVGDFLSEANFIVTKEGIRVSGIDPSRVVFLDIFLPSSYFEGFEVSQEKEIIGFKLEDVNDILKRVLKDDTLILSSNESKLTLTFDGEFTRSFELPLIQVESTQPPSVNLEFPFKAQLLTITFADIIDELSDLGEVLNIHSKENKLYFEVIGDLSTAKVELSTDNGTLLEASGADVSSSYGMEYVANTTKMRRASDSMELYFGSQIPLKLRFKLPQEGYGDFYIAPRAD
# T6: MsePCNA2 (Metallosphaera sedula, UniProt A4YHP5 1-244)
# T6 chain: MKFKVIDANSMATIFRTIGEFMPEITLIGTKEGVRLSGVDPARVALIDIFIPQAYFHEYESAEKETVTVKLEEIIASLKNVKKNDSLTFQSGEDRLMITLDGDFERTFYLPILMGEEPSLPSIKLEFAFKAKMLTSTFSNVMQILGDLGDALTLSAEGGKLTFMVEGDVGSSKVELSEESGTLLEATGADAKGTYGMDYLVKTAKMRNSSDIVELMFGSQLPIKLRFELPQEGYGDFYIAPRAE
# Tests used:
# [1] = target: T1, SsoPCNA1:MsePCNA2 complex; experiment: SPR; Biacore; MsePCNA2 or SsoPCNA2 immobilised on CM5, 1 μM MsePCNA1 or SsoPCNA1 applied, then MsePCNA3 or SsoPCNA3 injected at various concentrations; plateau signal fitted to a Langmuir isotherm; 10 mM HEPES-HCl pH 7.4, 150 mM NaCl
# [2] = target: T2, MsePCNA1:MsePCNA2 heterodimer; experiment: as above
# [3] = target: SsoPCNA1:SsoPCNA2 heterodimer (Sulfolobus solfataricus) (UniProt P57766); experiment: as above
# MsePCNA1 = target: T3, MsePCNA1; experiment: SPR; Biacore; about 350 RU of MsePCNA2 or SsoPCNA2 immobilised on Sensor Chip CM5; MsePCNA1 or SsoPCNA1 injected (2.5, 5, 10, 20, 40 nM), kinetic fit; 10 mM HEPES-HCl pH 7.4, 150 mM NaCl; conditions: both partners purified
# SsoPCNA1 = target: T4, SsoPCNA1; experiment: as above; conditions: both partners purified
# SsoPCNA2 [4] = target: T5, SsoPCNA2; experiment: SPR; 2.5 nM MsePCNA1
# MsePCNA2 [5] = target: T6, MsePCNA2; experiment: SPR; 2.5 nM MsePCNA1
# SsoPCNA2 [6] = target: T5, SsoPCNA2; experiment: SPR; Biacore; about 350 RU of MsePCNA2 or SsoPCNA2 immobilised on Sensor Chip CM5; MsePCNA1 or SsoPCNA1 injected (2.5, 5, 10, 20, 40 nM), kinetic fit; 10 mM HEPES-HCl pH 7.4, 150 mM NaCl
# SsoPCNA2 [7] = target: T5, SsoPCNA2; experiment: SPR; 5 nM MsePCNA1
# MsePCNA2 [8] = target: T6, MsePCNA2; experiment: SPR; 1.25 nM MsePCNA1
# SsoPCNA2 [9] = target: T5, SsoPCNA2; experiment: SPR; 5 nM MsePCNA1
# MsePCNA2 [10] = target: T6, MsePCNA2; experiment: SPR; 5 nM MsePCNA1
# MsePCNA2 [11] = target: T6, MsePCNA2; experiment: SPR; 10 nM MsePCNA1
# MsePCNA2 [12] = target: T6, MsePCNA2; experiment: SPR; 1.25 nM MsePCNA1
# SsoPCNA2 [13] = target: T5, SsoPCNA2; experiment: SPR; 2.5 nM MsePCNA1
# MsePCNA2 [14] = target: T6, MsePCNA2; experiment: SPR; 2.5 nM MsePCNA1
# MsePCNA2 [15] = target: T6, MsePCNA2; experiment: SPR; 40 nM MsePCNA1
# SsoPCNA2 [16] = target: T5, SsoPCNA2; experiment: SPR; 20 nM MsePCNA1
# MsePCNA2 [17] = target: T6, MsePCNA2; experiment: SPR; 20 nM MsePCNA1
# SsoPCNA2 [18] = target: T5, SsoPCNA2; experiment: SPR; 40 nM MsePCNA1
# MsePCNA2 [19] = target: T6, MsePCNA2; experiment: SPR; 40 nM MsePCNA1
# MsePCNA2 [20] = target: T6, MsePCNA2; experiment: SPR; 20 nM MsePCNA1
# SsoPCNA2 [21] = target: T5, SsoPCNA2; experiment: SPR; 50 nM MsePCNA1
# SsoPCNA2 [22] = target: T5, SsoPCNA2; experiment: SPR; 10 nM MsePCNA1
# MsePCNA2 [23] = target: T6, MsePCNA2; experiment: SPR; 10 nM MsePCNA1
molecule,measurement,setting,value
SsoPCNA3 (natural protein),Kd,[1],170 nM
same,Kd,[2],190 nM
same,Kd,[3],200 nM
"MsePCNA2 (natural protein, Metallosphaera sedula, UniProt A4YHP5 1-244, looked up, MsePCNA2 (Msed_1792), PCNA homologue of Metallosphaera sedula; 'His6-tag-removed' is said for the pull-down only; also called Msed_1792; M. sedula PCNA homologue 2) MKFKVIDANSMATIFRTIGEFMPEITLIGTKEGVRLSGVDPARVALIDIFIPQAYFHEYESAEKETVTVKLEEIIASLKNVKKNDSLTFQSGEDRLMITLDGDFERTFYLPILMGEEPSLPSIKLEFAFKAKMLTSTFSNVMQILGDLGDALTLSAEGGKLTFMVEGDVGSSKVELSEESGTLLEATGADAKGTYGMDYLVKTAKMRNSSDIVELMFGSQLPIKLRFELPQEGYGDFYIAPRAE",Kd,MsePCNA1,0.33 nM
same,koff,MsePCNA1,8.9e-05 s⁻¹
same,kon,MsePCNA1,280000 M⁻¹ s⁻¹
same,Kd,SsoPCNA1,1.8 nM
same,koff,SsoPCNA1,0.00044 s⁻¹
same,kon,SsoPCNA1,270000 M⁻¹ s⁻¹
MsePCNA1 (natural protein) MFRAIYGSSRDFYYIVSSISKISDELTLNFTEEGIGSKYLTDDKVMMGVVEIGKDALEEYSIEKPISVKLNLGELKKILSKMKGRSSVEITETNEGIRISMKDEKTGTRSSLSIKAEKGEPQILKEPSVAHSVTMGIGGDILSILVDESMQVGEEVEIKAEDDHVSFEVEEAGKKYSAVLKNGKPLTKLEIEKQGSSRYSLAILEKVSSALSFSKEIEIGFGAGIPMKLTAPLEKGAGIRFWVAPRL,Kd,SsoPCNA2 [4],6.81 nM
same,Kd,MsePCNA2 [5],0.396 nM
same,Kd,SsoPCNA2 [6],1.6 nM
same,koff,SsoPCNA2 [6],0.0012 s⁻¹
same,kon,SsoPCNA2 [6],130000 M⁻¹ s⁻¹
same,Kd,SsoPCNA2 [7],6.37 nM
same,Kd,MsePCNA2 [8],0.531 nM
same,koff,SsoPCNA2 [9],0.00132 s⁻¹
same,koff,MsePCNA2 [10],0.00011 s⁻¹
same,koff,MsePCNA2 [11],7.99e-05 s⁻¹
same,koff,MsePCNA2 [12],0.000128 s⁻¹
same,koff,SsoPCNA2 [13],0.00134 s⁻¹
same,koff,MsePCNA2 [14],0.000121 s⁻¹
same,koff,MsePCNA2 [15],4.29e-05 s⁻¹
same,Kd,SsoPCNA2 [16],12.9 nM
same,Kd,MsePCNA2 [17],0.215 nM
same,Kd,SsoPCNA2 [18],36 nM
same,Kd,MsePCNA2 [19],0.253 nM
same,koff,MsePCNA2 [20],5.79e-05 s⁻¹
same,Kd,SsoPCNA2 [21],27.5 nM
same,Kd,SsoPCNA2 [22],7.02 nM
same,Kd,MsePCNA2 [23],0.249 nM
"MsePCNA3 (natural protein, Metallosphaera sedula, UniProt A4YIY6 1-245, looked up, MsePCNA3 (Msed_2250), PCNA homologue of Metallosphaera sedula; 'His6-tag-removed' is said for the pull-down only; also called Msed_2250; M. sedula PCNA homologue 3) MRIAYANAMDFKTVIEALSKLIDEVTFTFTSSGLDVVAVDRAHISLIKLHFPKEAFEEFDVEDQFRFGFNTQYMLKVMASAKRKEKIEMESREESEIVIRMLGEPPREFTIRNIEVPIQELPELKLDFDVKAKITSGGFKKAVSEIATVSDSVEIDATEMEIKLRSKESTEIEVEFSKEMGGLQEIEVKKPSVSSYPSDYLEDVLVLTRLSGFLNLLFSEQKPLQLEFNMDNGGSVVYLLAPNVG",Kd,[1]; both partners purified,380 nM
same,Kd,[2]; both partners purified,43 nM

# Reference: publication PMC4894655, “Three proliferating cell nuclear antigen homologues from Metallosphaera sedula form a head-to-tail heterotrimer” (Scientific Reports, 2016)
